Test system: growth of yeast strains under 51 stress conditions
Experiment: Growth assays in 51 stress conditions (Fig. 1E-F, S2D, S5B)
Type: cell-based, Saccharomyces cerevisiae
Parameters: key to Growth (Fig. S2D) / growth of ABP1 SH3-swapped strains in stress condition: log2 colony size, average of median per strain (growth score)
Settings: FigS2D
Procedure, shortened: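 Colony sizes at 74 h on 51 stress media (37 °C) were log2 transformed, corrected for plate effects, and averaged across two plates as per-plate medians (growth score). Strains arrayed in 12 replicates with WT border, grown first on YPD for two days at 30 °C.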

B1: SHO1 (protein, UniProt P40073 1-367, looked up)
High osmolarity signaling …: MSISSKIRPTPRKPSRMATDHSFKMKKFYADPFAISSISLAIVSWVIAIGGSISSASTNESFPRFTWWGIVYQFLIICSLMLFYCFDLVDHYRIFITTSIAVAFVYNTNSATNLVYADGPKKAAASAGVILLSIINLIWILYYGGDNASPTNRWIDSFSIKGIRPSPLENSLHRARRRGNRNTTPYQNNVYNDAIRDSGYATQFDGYPQQQPSHTNYVSSTALAGFENTQPNTSEAVNLHLNTLQQRINSASNAKETNDNSNNQTNTNIGNTFDTDFSNGNTETTMGDTLGLYSDIGDDNFIYKAKALYPYDADDDDAYEISFEQNEILQVSDIEGRWWKARRANGETGIIPSNYVQLIDGPEEMHR
growth of ABP1 SH3-swapped strains in stress condition (Bathophenanthroline.0.1uM): 10.8666
growth of ABP1 SH3-swapped strains in stress condition (Bathophenanthroline.10uM): 10.6802
growth of ABP1 SH3-swapped strains in stress condition (Bathophenanthroline.1uM): 10.8165
growth of ABP1 SH3-swapped strains in stress condition (CaCl2.100mM): 10.8196
growth of ABP1 SH3-swapped strains in stress condition (CaCl2.250mM): 10.7666
growth of ABP1 SH3-swapped strains in stress condition (CaCl2.500mM): 10.33
growth of ABP1 SH3-swapped strains in stress condition (Caffein.10mM): 9.975
growth of ABP1 SH3-swapped strains in stress condition (Caffein.2mM): 10.938
growth of ABP1 SH3-swapped strains in stress condition (CdCl2.100uM): 9.34
growth of ABP1 SH3-swapped strains in stress condition (CdCl2.10uM): 10.884
growth of ABP1 SH3-swapped strains in stress condition (CdCl2.50uM): 9.827
growth of ABP1 SH3-swapped strains in stress condition (CuSO4.1mM): 10.4931
growth of ABP1 SH3-swapped strains in stress condition (CuSO4.5mM): 7.806
growth of ABP1 SH3-swapped strains in stress condition (Cycloheximide.0.05.uM): 11.0905
growth of ABP1 SH3-swapped strains in stress condition (Cycloheximide.0.2.uM): 10.7035
growth of ABP1 SH3-swapped strains in stress condition (Cycloheximide.0.5.uM): 10.0394
growth of ABP1 SH3-swapped strains in stress condition (DMSO.2.): 11.0205
growth of ABP1 SH3-swapped strains in stress condition (DMSO.6.): 9.808
growth of ABP1 SH3-swapped strains in stress condition (DMSO.8.): 8.962
growth of ABP1 SH3-swapped strains in stress condition (Ethanol.2.): 10.7684
growth of ABP1 SH3-swapped strains in stress condition (Ethanol.6.): 10.4049
growth of ABP1 SH3-swapped strains in stress condition (Ethanol.8.): 10.2263
growth of ABP1 SH3-swapped strains in stress condition (Galactose.2.): 10.8154
growth of ABP1 SH3-swapped strains in stress condition (Glycerol.2.): 9.771
growth of ABP1 SH3-swapped strains in stress condition (Hydroxyurea.25mM): 10.7838
growth of ABP1 SH3-swapped strains in stress condition (Hygromycin.190uM): 10.9371
growth of ABP1 SH3-swapped strains in stress condition (Hygromycin.19uM): 10.9563
growth of ABP1 SH3-swapped strains in stress condition (Hygromycin.95uM): 10.9936
growth of ABP1 SH3-swapped strains in stress condition (MMS.0.004.): 10.9851
growth of ABP1 SH3-swapped strains in stress condition (MMS.0.02.): 10.7181
growth of ABP1 SH3-swapped strains in stress condition (MMS.0.04.): 10.0309
growth of ABP1 SH3-swapped strains in stress condition (Menadione.100uM): 10.5941
growth of ABP1 SH3-swapped strains in stress condition (Menadione.200uM): 10.4073
growth of ABP1 SH3-swapped strains in stress condition (Menadione.50uM): 10.7963
growth of ABP1 SH3-swapped strains in stress condition (NaCl.0.25M): 10.8224
growth of ABP1 SH3-swapped strains in stress condition (NaCl.1M): 9.702
growth of ABP1 SH3-swapped strains in stress condition (Nitroquinoline.10uM): 10.7342
growth of ABP1 SH3-swapped strains in stress condition (Nitroquinoline.50uM): 10.7229
growth of ABP1 SH3-swapped strains in stress condition (Nystatin.0.01uM): 11.0733
growth of ABP1 SH3-swapped strains in stress condition (Nystatin.0.1uM): 11.0089
growth of ABP1 SH3-swapped strains in stress condition (Raffinose.2.): 11.0381
growth of ABP1 SH3-swapped strains in stress condition (Rapamycin.10nM): 9.786
growth of ABP1 SH3-swapped strains in stress condition (Rapamycin.50nM): 9.424
growth of ABP1 SH3-swapped strains in stress condition (SC.pH3): 10.389
growth of ABP1 SH3-swapped strains in stress condition (SC.pH6): 11.0143
growth of ABP1 SH3-swapped strains in stress condition (SDS.0.01.): 10.9726
growth of ABP1 SH3-swapped strains in stress condition (SDS.0.02.): 10.9605
growth of ABP1 SH3-swapped strains in stress condition (SDS.0.05.): 10.8495
growth of ABP1 SH3-swapped strains in stress condition (Sorbitol.10mM): 10.9902
growth of ABP1 SH3-swapped strains in stress condition (Sorbitol.1mM): 11.0334
growth of ABP1 SH3-swapped strains in stress condition (Sorbitol.5mM): 10.9353

B2: SDC25 (protein, UniProt P0CF34 1-1048, looked up)
Putative truncated guanine …: MPITSSPDLFYLNDCDVVYWYDLTRLVCHYVNLTERDLLANEREKFLTSLDLLTAQITYVYMLFRNLRLVEDSFKKTLKKLIYTLSRFSINANIWFHSTLFEEREAIASQKDPERRSPLLQSILGTFQKFHFLLRLLHFLSNPNELTILPQLTPRFFKDSFNTISWNNPFLRKRLNQHMSHDLPRQMIKAVAGASGIVAENIDEIPASKQGTSCSSETSHHSPSAPFQRRRRGTIFSNVSGSSDESDTIWSKRKKPYPLNEETLSLVRARKKQLDGKLKQMIKSANEYLSNTANFSKMLNFEMNFKTYEEVSGTIPIIDILENLDLTIFLNLRELGDENRVFDEDVAIDDEDEEFLKHSLSSLSYILSDYFNMKQYFHDVVVKFIIVAQHLTLEDPFVFSPMQNDLPTGYYEPMKPSSLNLDNAKDKKNGSQNTDIQEEEDEYEPDPDSLILFHNLINQDSDFNDLKFFNLAHVFKKSCDDYFDVLKLAIEFVNQLILERENLLNYAARMMKNNITELLLRGEEGYGSYDGGETAEKSDTNAVYADSDTKDNDEWRDSQVKLPRYLQREYDSELIWGSNNRIKGGSKHALISYLTDNEKKDLFFDITFLITFRSIFTTTEFLSYLISQYNLDPPEDLCFEEYNEWVTKKLIPVKCRVVEIMTTFFKQYWFLGYDEPDLATLNLDYFAQVAIKENITGSVELLKEVNQKFKHGNIQEATAPMKTLDQQICQDHYSGTLYSTTESILAVDPVLFATQLTILEHEIYCEITIFDCLQKIWKNKYTKSYGASPGLNEFISFANKLTNFISYSVVKEADKSKRAKLLSHFIFIAEYCRKFNNFSSMTAIISALYSSPIYRLEKTWQAVIPQTRDLLQSLNKLMDPKKNFINYRNELKSLHSAPCVPFFGVYLSDLTFTDSGNPDYLVLEHGLKGVHDEKKYINFNKRSRLVDILQEIIYFKKTHYDFTKDRTVIECISNSLENIPHIEKQYQLSLIIEPKPRKKVVPNSNSNNKSQEKSRDDQTDEGKTSTKKDRFPKFQLHKTKKKAPKVSK
growth of ABP1 SH3-swapped strains in stress condition (Bathophenanthroline.0.1uM): 10.8364
growth of ABP1 SH3-swapped strains in stress condition (Bathophenanthroline.10uM): 10.6904
growth of ABP1 SH3-swapped strains in stress condition (Bathophenanthroline.1uM): 10.7994
growth of ABP1 SH3-swapped strains in stress condition (CaCl2.100mM): 10.8248
growth of ABP1 SH3-swapped strains in stress condition (CaCl2.250mM): 10.7599
growth of ABP1 SH3-swapped strains in stress condition (CaCl2.500mM): 10.2626
growth of ABP1 SH3-swapped strains in stress condition (Caffein.10mM): 10.0769
growth of ABP1 SH3-swapped strains in stress condition (Caffein.2mM): 11.0485
growth of ABP1 SH3-swapped strains in stress condition (CdCl2.100uM): 9.5
growth of ABP1 SH3-swapped strains in stress condition (CdCl2.10uM): 10.8639
growth of ABP1 SH3-swapped strains in stress condition (CdCl2.50uM): 9.958
growth of ABP1 SH3-swapped strains in stress condition (CuSO4.1mM): 10.5113
growth of ABP1 SH3-swapped strains in stress condition (CuSO4.5mM): 8.27
growth of ABP1 SH3-swapped strains in stress condition (Cycloheximide.0.05.uM): 11.0819
growth of ABP1 SH3-swapped strains in stress condition (Cycloheximide.0.2.uM): 10.7047
growth of ABP1 SH3-swapped strains in stress condition (Cycloheximide.0.5.uM): 10.178
growth of ABP1 SH3-swapped strains in stress condition (DMSO.2.): 11.0639
growth of ABP1 SH3-swapped strains in stress condition (DMSO.6.): 9.8939
growth of ABP1 SH3-swapped strains in stress condition (DMSO.8.): 9.304
growth of ABP1 SH3-swapped strains in stress condition (Ethanol.2.): 10.7995
growth of ABP1 SH3-swapped strains in stress condition (Ethanol.6.): 10.2862
growth of ABP1 SH3-swapped strains in stress condition (Ethanol.8.): 10.1201
growth of ABP1 SH3-swapped strains in stress condition (Galactose.2.): 10.8278
growth of ABP1 SH3-swapped strains in stress condition (Glycerol.2.): 9.649
growth of ABP1 SH3-swapped strains in stress condition (Hydroxyurea.25mM): 10.7663
growth of ABP1 SH3-swapped strains in stress condition (Hygromycin.190uM): 10.9932
growth of ABP1 SH3-swapped strains in stress condition (Hygromycin.19uM): 11.0621
growth of ABP1 SH3-swapped strains in stress condition (Hygromycin.95uM): 11.0036
growth of ABP1 SH3-swapped strains in stress condition (MMS.0.004.): 10.9622
growth of ABP1 SH3-swapped strains in stress condition (MMS.0.02.): 10.7008
growth of ABP1 SH3-swapped strains in stress condition (MMS.0.04.): 9.99
growth of ABP1 SH3-swapped strains in stress condition (Menadione.100uM): 10.5981
growth of ABP1 SH3-swapped strains in stress condition (Menadione.200uM): 10.4339
growth of ABP1 SH3-swapped strains in stress condition (Menadione.50uM): 10.8229
growth of ABP1 SH3-swapped strains in stress condition (NaCl.0.25M): 10.7913
growth of ABP1 SH3-swapped strains in stress condition (NaCl.1M): 9.689
growth of ABP1 SH3-swapped strains in stress condition (Nitroquinoline.10uM): 10.6447
growth of ABP1 SH3-swapped strains in stress condition (Nitroquinoline.50uM): 10.5332
growth of ABP1 SH3-swapped strains in stress condition (Nystatin.0.01uM): 11.0104
growth of ABP1 SH3-swapped strains in stress condition (Nystatin.0.1uM): 10.9861
growth of ABP1 SH3-swapped strains in stress condition (Raffinose.2.): 11.0244
growth of ABP1 SH3-swapped strains in stress condition (Rapamycin.10nM): 9.868
growth of ABP1 SH3-swapped strains in stress condition (Rapamycin.50nM): 9.322
growth of ABP1 SH3-swapped strains in stress condition (SC.pH3): 10.4118
growth of ABP1 SH3-swapped strains in stress condition (SC.pH6): 11.0555
growth of ABP1 SH3-swapped strains in stress condition (SDS.0.01.): 10.9877
growth of ABP1 SH3-swapped strains in stress condition (SDS.0.02.): 11.0022
growth of ABP1 SH3-swapped strains in stress condition (SDS.0.05.): 10.9318
growth of ABP1 SH3-swapped strains in stress condition (Sorbitol.10mM): 10.9817
growth of ABP1 SH3-swapped strains in stress condition (Sorbitol.1mM): 11.0284
growth of ABP1 SH3-swapped strains in stress condition (Sorbitol.5mM): 10.9056
